B1: KinI-3 construct E213/S566 (protein)
chain: MEKQNPWTEMEKIRVCVRKRPLGMREVRRGEINIITVEDKETLLVHEKKEAVDLTQYILQHVFYFDEVFGEACTNQDVYMKTTHPLIQHIFNGGNATCFAYGQTGAGKTYTMIGTHENPGLYALAAKDIFRQLEVSQPRKHLFVWISFYEIYCGQLYDLLNRRKRLFAREDSKHMVQIVGLQELQVDSVELLLEVILKGSKERSTGATGVNADSSRSHAVIQIQIKDSAKRTFGRISFIDLAGSERAADARDSDRQTKMEGAEINQSLLALKECIRALDQEHTHTPFRQSKLTQVLKDSFIGNAKTCMIANISPSHVATEHTLNTLRYADRVKELKKGIKCCTSVTSRNRTSGNSLEHHHHHH
B2: KinI-3 construct E213/L546 (protein)
chain: MEKQNPWTEMEKIRVCVRKRPLGMREVRRGEINIITVEDKETLLVHEKKEAVDLTQYILQHVFYFDEVFGEACTNQDVYMKTTHPLIQHIFNGGNATCFAYGQTGAGKTYTMIGTHENPGLYALAAKDIFRQLEVSQPRKHLFVWISFYEIYCGQLYDLLNRRKRLFAREDSKHMVQIVGLQELQVDSVELLLEVILKGSKERSTGATGVNADSSRSHAVIQIQIKDSAKRTFGRISFIDLAGSERAADARDSDRQTKMEGAEINQSLLALKECIRALDQEHTHTPFRQSKLTQVLKDSFIGNAKTCMIANISPSHVATEHTLNTLRYADRVKELLEHHHHHH
B3: KinI-3 construct D183L546 (protein)
chain: MDCDIPIIQRISHVSGYNYGIPHSCIRQNTSEKQNPWTEMEKIRVCVRKRPLGMREVRRGEINIITVEDKETLLVHEKKEAVDLTQYILQHVFYFDEVFGEACTNQDVYMKTTHPLIQHIFNGGNATCFAYGQTGAGKTYTMIGTHENPGLYALAAKDIFRQLEVSQPRKHLFVWISFYEIYCGQLYDLLNRRKRLFAREDSKHMVQIVGLQELQVDSVELLLEVILKGSKERSTGATGVNADSSRSHAVIQIQIKDSAKRTFGRISFIDLAGSERAADARDSDRQTKMEGAEINQSLLALKECIRALDQEHTHTPFRQSKLTQVLKDSFIGNAKTCMIANISPSHVATEHTLNTLRYADRVKELLEHHHHHH
B4: KinI-3 construct D143L546 (protein)
chain: DDSQYHTKTGILNATAGDSYVQTEISTSLFSPNYLSAILGDCDIPIIQRISHVSGYNYGIPHSCIRQNTSEKQNPWTEMEKIRVCVRKRPLGMREVRRGEINIITVEDKETLLVHEKKEAVDLTQYILQHVFYFDEVFGEACTNQDVYMKTTHPLIQHIFNGGNATCFAYGQTGAGKTYTMIGTHENPGLYALAAKDIFRQLEVSQPRKHLFVWISFYEIYCGQLYDLLNRRKRLFAREDSKHMVQIVGLQELQVDSVELLLEVILKGSKERSTGATGVNADSSRSHAVIQIQIKDSAKRTFGRISFIDLAGSERAADARDSDRQTKMEGAEINQSLLALKECIRALDQEHTHTPFRQSKLTQVLKDSFIGNAKTCMIANISPSHVATEHTLNTLRYADRVKEL
B5: KinI-3 construct V195L546 (protein)
chain: VSGYNYGIPHSCIRQNTSEKQNPWTEMEKIRVCVRKRPLGMREVRRGEINIITVEDKETLLVHEKKEAVDLTQYILQHVFYFDEVFGEACTNQDVYMKTTHPLIQHIFNGGNATCFAYGQTGAGKTYTMIGTHENPGLYALAAKDIFRQLEVSQPRKHLFVWISFYEIYCGQLYDLLNRRKRLFAREDSKHMVQIVGLQELQVDSVELLLEVILKGSKERSTGATGVNADSSRSHAVIQIQIKDSAKRTFGRISFIDLAGSERAADARDSDRQTKMEGAEINQSLLALKECIRALDQEHTHTPFRQSKLTQVLKDSFIGNAKTCMIANISPSHVATEHTLNTLRYADRVKEL
B6: KinI-3 construct E166L546 (protein)
chain: EISTSLFSPNYLSAILGDCDIPIIQRISHVSGYNYGIPHSCIRQNTSEKQNPWTEMEKIRVCVRKRPLGMREVRRGEINIITVEDKETLLVHEKKEAVDLTQYILQHVFYFDEVFGEACTNQDVYMKTTHPLIQHIFNGGNATCFAYGQTGAGKTYTMIGTHENPGLYALAAKDIFRQLEVSQPRKHLFVWISFYEIYCGQLYDLLNRRKRLFAREDSKHMVQIVGLQELQVDSVELLLEVILKGSKERSTGATGVNADSSRSHAVIQIQIKDSAKRTFGRISFIDLAGSERAADARDSDRQTKMEGAEINQSLLALKECIRALDQEHTHTPFRQSKLTQVLKDSFIGNAKTCMIANISPSHVATEHTLNTLRYADRVKEL
B7: KinI-3 construct V195S566 (protein)
chain: MVSGYNYGIPHSCIRQNTSEKQNPWTEMEKIRVCVRKRPLGMREVRRGEINIITVEDKETLLVHEKKEAVDLTQYILQHVFYFDEVFGEACTNQDVYMKTTHPLIQHIFNGGNATCFAYGQTGAGKTYTMIGTHENPGLYALAAKDIFRQLEVSQPRKHLFVWISFYEIYCGQLYDLLNRRKRLFAREDSKHMVQIVGLQELQVDSVELLLEVILKGSKERSTGATGVNADSSRSHAVIQIQIKDSAKRTFGRISFIDLAGSERAADARDSDRQTKMEGAEINQSLLALKECIRALDQEHTHTPFRQSKLTQVLKDSFIGNAKTCMIANISPSHVATEHTLNTLRYADRVKELKKGIKCCTSVTSRNRTSGNSLEHHHHHH
B8: KinI-3 construct E233F541 (protein)
chain: LGMREVRRGEINIITVEDKETLLVHEKKEAVDLTQYILQHVFYFDEVFGEACTNQDVYMKTTHPLIQHIFNGGNATCFAYGQTGAGKTYTMIGTHENPGLYALAAKDIFRQLEVSQPRKHLFVWISFYEIYCGQLYDLLNRRKRLFAREDSKHMVQIVGLQELQVDSVELLLEVILKGSKERSTGATGVNADSSRSHAVIQIQIKDSAKRTFGRISFIDLAGSERAADARDSDRQTKMEGAEINQSLLALKECIRALDQEHTHTPFRQSKLTQVLKDSFIGNAKTCMIANISPSHVATEHTLNTLRYAD

What follows are molecules tested on microtubules.
For “KinI-3 protein, bacterially expressed and purified (construct not stated)”, the “microtubule depolymerization (tubulin in supernatant after centrifugation, SDS PAGE), with ATP” value was “Track 3 shows an increase in tubulin in the supernatant that indicates depolymerization in the presence of ATP” and the “microtubule depolymerization (tubulin in supernatant after centrifugation, SDS PAGE), without hydrolysable ATP” value was “No depolymerization was observed in the absence of ATP (track 4), in the presence of AMP-PNP (track 5) or in the presence of ADP (track 6)”.

Molecular target: microtubules
Remark: another data set of the same source
With B1 the MT depolymerization was “weak”.
In the case of B2, the MT depolymerization is reported as “yes”.
B3 was tested, and the MT depolymerization was “yes”.
In the case of B4, the MT depolymerization is reported as “no”.
In the case of B5, the MT depolymerization is reported as “no”.
For B6, the MT depolymerization was “no”.
For B7, the MT depolymerization was “yes”.
For B8, the MT depolymerization was “no”.

Reference: patent US20050054041
